Paper PMC3500689

How the values were obtained:
[1] = target: GluA2 flip splice variant (R/G edited) (UniProt P19491)
[2] = target: GluA2 flop splice variant (UniProt P19491)
[3] = target: GluA2 flip splice variant (R/G edited) (UniProt P19491); remark: listed apart in the source
[4] = target: GluA2, native in CA1 pyramidal cells (rat (endogenous in hippocampal slice cultures)) (UniProt P19491)

rectification index (g+10 / g-40) of I/V relationships with 100 uM intracellular spermine, HEK293T cells cotransfected at an A1/A2 ratio of 4:1; marker for heteromerization competence [1]	rectification index of patches from HEK293 cells expressing A1i/A2o and γ-8 (threshold by which patches were chosen) [2]	rectification index of patches from HEK293 cells expressing A1o/A2i and γ-8 (threshold by which patches were chosen) [3]	Substance	percentage block of the peak glutamate current by 100 μM philanthotoxin 74 (selective for A1/A2 heteromers), CA1 patches, control slices, mean [4] [%]	percentage block of the peak glutamate current by 100 μM philanthotoxin 74 (selective for A1/A2 heteromers), CA1 patches, slices after 48 hr TTX, mean [4] [%]
0.1	> 0.7		GluA1 flip splice variant (from UniProt P19490-2 19-907) (receptor)		
0.7		> 0.7	GluA1 flop splice variant (from UniProt P19490 19-907) (receptor)		
			GluA1, native in CA1 pyramidal cells (from UniProt P19490 19-907) (receptor)	95	93.9
